Data: patent US20160264649A1

Tests used:
Assay in all cases: cell-based or functional assay
[1] = biological target: HIV-1 92BR020 Env on pseudovirus (HIV-1)
[2] = biological target: HIV-1 92RW020 Env (HIV-1)
[3] = biological target: HIV-1 92TH021 Env (HIV-1)
[4] = biological target: HIV-1 92UG001 Env (HIV-1)
[5] = biological target: HIV-1 92UG024 Env (HIV-1)
[6] = biological target: HIV-1 93TH305 Env on pseudovirus (HIV-1)
[7] = biological target: HIV-1 93UG077 Env (HIV-1)
[8] = biological target: HIV-1 94UG103 Env (HIV-1)
HIV-1 APV-13 Env (HIV-1) = biological target: HIV-1 APV-13 Env (HIV-1)
[9] = biological target: HIV-1 APV_6 Env on pseudovirus (HIV-1)
[10] = biological target: HIV-1 CAAN.A2 (Acute) Env on pseudovirus (HIV-1)
HIV-1 CMU02 Env (HIV-1) = biological target: HIV-1 CMU02 Env (HIV-1)
[11] = biological target: HIV-1 IAVI-C3 Env (HIV-1)
HIV-1 JRCSF Env (HIV-1) = HIV-1 JRCSF Env (HIV-1) (UniProt P20871)
[12] = biological target: HIV-1 JRCSF Env on pseudovirus (HIV-1) (UniProt P20871)
[13] = biological target: HIV-1 LAVI_C3 Env on pseudovirus (HIV-1)
[14] = biological target: HIV-1 MGRM-AE-006 Env (HIV-1)
[15] = biological target: HIV-1 MGRM-AE-008 Env (HIV-1)
[16] = biological target: HIV-1 MGRM-AG-008 Env (HIV-1)
[17] = biological target: HIV-1 MGRM-AG-009 Env (HIV-1)
[18] = biological target: HIV-1 MGRM-C-002 Env on pseudovirus (HIV-1)
[19] = biological target: HIV-1 MGRM-C-013 Env on pseudovirus (HIV-1)
[20] = biological target: HIV-1 MGRM-C-015 Env on pseudovirus (HIV-1)
[21] = biological target: HIV-1 MGRM-C-017 Env on pseudovirus (HIV-1)
[22] = biological target: HIV-1 MGRM-Chronic-B-003 Env on pseudovirus (HIV-1)
[23] = biological target: HIV-1 MGRM-Chronic-B-010 Env on pseudovirus (HIV-1)
[24] = biological target: HIV-1 MGRM-Chronic-B-017 Env on pseudovirus (HIV-1)
[25] = biological target: HIV-1 MGRM-Chronic-B-020 Env on pseudovirus (HIV-1)
[26] = biological target: HIV-1 MGRM-Chronic-B-024 Env on pseudovirus (HIV-1)
[27] = biological target: HIV-1 MGRM-D-001 Env (HIV-1)
[28] = biological target: HIV-1 MGRM-D-002 Env (HIV-1)
[29] = biological target: HIV-1 MGRM-D-003 Env (HIV-1)
[30] = biological target: HIV-1 MGRM-D-011 Env (HIV-1)
[31] = biological target: HIV-1 MGRM-D-013 Env (HIV-1)
[32] = biological target: HIV-1 MGRM-D-014 Env (HIV-1)
[33] = biological target: HIV-1 MGRM-D-018 Env (HIV-1)
[34] = biological target: HIV-1 MGRM-D-019 Env (HIV-1)
[35] = biological target: HIV-1 MGRM-D-028 Env (HIV-1)
[36] = biological target: HIV-1 MGRM-D-029 Env (HIV-1)
[37] = biological target: HIV-1 MGRM-F1-014 Env (HIV-1)
[38] = biological target: HIV-1 MGRM-F1-015 Env (HIV-1)
[39] = biological target: HIV-1 MGRM-F1-017 Env (HIV-1)
[40] = biological target: HIV-1 MGRM-F1-023 Env (HIV-1)
[41] = biological target: HIV-1 MGRM-G-001 Env (HIV-1)
[42] = biological target: HIV-1 MGRM-G-004 Env (HIV-1)
[43] = biological target: HIV-1 MGRM-G-019 Env (HIV-1)
[44] = biological target: HIV-1 MGRM-G-024 Env (HIV-1)
[45] = biological target: HIV-1 NL43 Env on pseudovirus (HIV-1)
[46] = biological target: HIV-1 TRO.11 (Acute) Env on pseudovirus (HIV-1)
[47] = biological target: HIV-1 VLGCB3 Env on pseudovirus (HIV-1)

In the case of 1495_C14 (PGC14) (antibody), the IC50 [1] is reported as 4 µg/mL, the neutralization IC50 [2] is reported as 28.6 µg/mL and the IC50 (µg/ml), pseudovirus neutralization [3] is reported as > 50 µg/mL. The neutralization IC50 [3] was > 50 µg/mL, the IC50 (µg/ml), pseudovirus neutralization [4] was > 50 µg/mL and the IC50 (µg/ml), pseudovirus neutralization [5] was > 50 µg/mL. The neutralization IC50 [5] was > 50 µg/mL, the IC50 [6] was 6 µg/mL and the neutralization IC50 [7] was > 50 µg/mL. For the same substance, the neutralization IC50 [8] was > 50 µg/mL, the neutralization IC50 (HIV-1 APV-13 Env (HIV-1)) was > 50 µg/mL and the IC50 [9] was 23 µg/mL. For the same substance, the IC50 [10] was > 50 µg/mL, the IC50 (µg/ml), pseudovirus neutralization (HIV-1 CMU02 Env (HIV-1)) was > 50 µg/mL and the neutralization IC50 (HIV-1 CMU02 Env (HIV-1)) was > 50 µg/mL. For the same substance, the neutralization IC50 [11] was > 50 µg/mL, the neutralization IC50 (HIV-1 JRCSF Env (HIV-1)) was > 50 µg/mL and the IC50 [12] was 15 µg/mL. For the same substance, the IC50 [13] was 12 µg/mL, the IC50 (µg/ml), pseudovirus neutralization [14] was > 50 µg/mL and the IC50 (µg/ml), pseudovirus neutralization [15] was > 50 µg/mL. For the same substance, the IC50 (µg/ml), pseudovirus neutralization [16] was 45 µg/mL, the IC50 (µg/ml), pseudovirus neutralization [17] was > 50 µg/mL and the IC50 [18] was > 50 µg/mL. The IC50 [19] was > 50 µg/mL, the IC50 [20] was > 50 µg/mL and the IC50 [21] was > 50 µg/mL. The IC50 [22] was > 50 µg/mL, the IC50 [23] was 27 µg/mL and the IC50 [24] was > 50 µg/mL. For the same substance, the IC50 [25] was > 50 µg/mL, the IC50 [26] was > 50 µg/mL and the IC50 (µg/ml), pseudovirus neutralization [27] was > 50 µg/mL. The IC50 (µg/ml), pseudovirus neutralization [28] was 29 µg/mL, the IC50 (µg/ml), pseudovirus neutralization [29] was > 50 µg/mL and the IC50 (µg/ml), pseudovirus neutralization [30] was > 50 µg/mL. For the same substance, the IC50 (µg/ml), pseudovirus neutralization [31] was > 50 µg/mL, the IC50 (µg/ml), pseudovirus neutralization [32] was 48 µg/mL and the IC50 (µg/ml), pseudovirus neutralization [33] was > 50 µg/mL. For the same substance, the IC50 (µg/ml), pseudovirus neutralization [34] was > 50 µg/mL, the IC50 (µg/ml), pseudovirus neutralization [35] was > 50 µg/mL and the IC50 (µg/ml), pseudovirus neutralization [36] was > 50 µg/mL. For the same substance, the IC50 (pseudovirus neutralization) [37] was > 50 µg/mL, the IC50 (pseudovirus neutralization) [38] was > 50 µg/mL and the IC50 (pseudovirus neutralization) [39] was > 50 µg/mL. For the same substance, the IC50 (pseudovirus neutralization) [40] was > 50 µg/mL, the IC50 (µg/ml), pseudovirus neutralization [41] was > 50 µg/mL and the IC50 (µg/ml), pseudovirus neutralization [42] was > 50 µg/mL. The IC50 (µg/ml), pseudovirus neutralization [43] was > 50 µg/mL, the IC50 (µg/ml), pseudovirus neutralization [44] was > 50 µg/mL and the IC50 [45] was 40 µg/mL. For the same substance, the IC50 [46] was > 50 µg/mL and the IC50 [47] was 21 µg/mL.

b12 (antibody) was tested, and the IC50 [1] was > 50 µg/mL, the neutralization IC50 [2] was > 50 µg/mL and the neutralization IC90 [2] was > 50 µg/mL. The neutralization IC50 [3] was 9.99 µg/mL, the neutralization IC90 [3] was > 50 µg/mL and the IC50 (µg/ml), pseudovirus neutralization [4] was 1.01 µg/mL. The IC50 (µg/ml), pseudovirus neutralization [5] was 45.6 µg/mL, the neutralization IC50 [5] was 49.1 µg/mL and the neutralization IC90 [5] was > 50 µg/mL. For the same substance, the IC50 [6] was 4.17 µg/mL, the neutralization IC50 [7] was 41.1 µg/mL and the neutralization IC90 [7] was > 50 µg/mL. The neutralization IC50 [8] was 3.54 µg/mL, the neutralization IC90 [8] was 47.3 µg/mL and the neutralization IC50 (HIV-1 APV-13 Env (HIV-1)) was > 25 µg/mL. The neutralization IC90 (HIV-1 APV-13 Env (HIV-1)) was > 50 µg/mL, the IC50 [9] was > 50 µg/mL and the IC50 [10] was > 50 µg/mL. The IC50 (µg/ml), pseudovirus neutralization (HIV-1 CMU02 Env (HIV-1)) was 29.3 µg/mL, the neutralization IC50 (HIV-1 CMU02 Env (HIV-1)) was 4.25 µg/mL and the neutralization IC90 (HIV-1 CMU02 Env (HIV-1)) was 34.2 µg/mL. It also gave a neutralization IC50 [11] of 5 µg/mL, a neutralization IC50 (HIV-1 JRCSF Env (HIV-1)) of 0.16 µg/mL and a neutralization IC90 (HIV-1 JRCSF Env (HIV-1)) of 1.17 µg/mL. For the same substance, the IC50 [12] was 0.21 µg/mL, the IC50 [13] was 0.94 µg/mL and the IC50 (µg/ml), pseudovirus neutralization [14] was > 50 µg/mL. For the same substance, the IC50 (µg/ml), pseudovirus neutralization [15] was > 50 µg/mL, the IC50 (µg/ml), pseudovirus neutralization [16] was > 50 µg/mL and the IC50 (µg/ml), pseudovirus neutralization [17] was > 50 µg/mL. For the same substance, the IC50 [18] was > 50 µg/mL, the IC50 [19] was > 50 µg/mL and the IC50 [20] was 13.3 µg/mL. For the same substance, the IC50 [21] was > 50 µg/mL, the IC50 [22] was > 50 µg/mL and the IC50 [23] was > 50 µg/mL. The IC50 [24] was 2.59 µg/mL, the IC50 [25] was 6.16 µg/mL and the IC50 [26] was > 50 µg/mL. The IC50 (µg/ml), pseudovirus neutralization [27] was > 50 µg/mL, the IC50 (µg/ml), pseudovirus neutralization [28] was > 50 µg/mL and the IC50 (µg/ml), pseudovirus neutralization [29] was > 50 µg/mL. The IC50 (µg/ml), pseudovirus neutralization [30] was 7.75 µg/mL, the IC50 (µg/ml), pseudovirus neutralization [31] was > 50 µg/mL and the IC50 (µg/ml), pseudovirus neutralization [32] was > 50 µg/mL. For the same substance, the IC50 (µg/ml), pseudovirus neutralization [33] was 1.39 µg/mL, the IC50 (µg/ml), pseudovirus neutralization [34] was > 50 µg/mL and the IC50 (µg/ml), pseudovirus neutralization [35] was 0.78 µg/mL. For the same substance, the IC50 (µg/ml), pseudovirus neutralization [36] was > 50 µg/mL, the IC50 (pseudovirus neutralization) [37] was > 50 µg/mL and the IC50 (pseudovirus neutralization) [38] was > 50 µg/mL. The IC50 (pseudovirus neutralization) [39] was > 50 µg/mL, the IC50 (pseudovirus neutralization) [40] was > 50 µg/mL and the IC50 (µg/ml), pseudovirus neutralization [41] was > 50 µg/mL. The IC50 (µg/ml), pseudovirus neutralization [42] was > 50 µg/mL, the IC50 (µg/ml), pseudovirus neutralization [43] was 3.77 µg/mL and the IC50 (µg/ml), pseudovirus neutralization [44] was 2.38 µg/mL. The IC50 [45] was 0.17 µg/mL, the IC50 [46] was > 50 µg/mL and the IC50 [47] was 0.15 µg/mL.
